Patent publication US20210403591A1 (OSSIANIX, published 2021)
Like-named read-outs stand apart in the source and are kept apart here.

Assays:
Experiment in all cases: SPR, His-captured TfR1
[1] = molecular target: T1, recombinant human TfR-1, His-tagged (Sino Biological 11020-H07H) (human, UniProt P02786 89-760)
T1 construct: bought; His-tagged; also called hTfR1; hTfR-1
Method: (§1) Detailed binding kinetic analyses were performed to gain a better understanding of the relationship between affinity and brain penetration of the Clone C variants. Biacore surface plasmon resonance (SPR) analysis using immobilised mouse and human TfR-1 was performed for selected clones (Table 2).
(§2) Binding kinetics of VNAR-Fcs was determined by surface plasmon resonance (Biacore T200, GE Healthcare). CMS chips were coated with anti-His antibodies (His Capture Kit, GE Healthcare) as recommended by the manufacturer and human or mouse his-tagged TfR1 (SinoBiological) at 10 ug/mL in HBS-EP+ (GE Healthcare) was captured at flow rate 10 ul/min (contact time 120 s). […] A flow cell without TfR1 captured served as a reference. Sensorgrams were fitted and kinetic constants were determined using Biacore T200 Evaluation software. Chips were regenerated in 10 mM Glycine-HCl, pH 1.5 (contact time: 120 s at flow rate 30 ul/min).

[2] = molecular target: T2, recombinant mouse TfR-1, His-tagged (Sino Biological 50741-M07H) (mouse, UniProt Q62351 89-763)
T2 construct: bought; His-tagged; also called mTfR1; mTfR-1
Method: as §1, §2

[3] = molecular target: T2, recombinant mouse TfR-1, His-tagged …; remark: listed apart in the source
Method: Detailed binding kinetic analyses were performed to gain a better understanding of the relationship between affinity and brain penetration of the Clone H variants. Biacore surface plasmon resonance (SPR) analysis using immobilized mouse and human TfR-1 was performed for the clones (Table 5).
as §2

T2 sequence (Q62351 89-763 limits assumed, stated change not applied): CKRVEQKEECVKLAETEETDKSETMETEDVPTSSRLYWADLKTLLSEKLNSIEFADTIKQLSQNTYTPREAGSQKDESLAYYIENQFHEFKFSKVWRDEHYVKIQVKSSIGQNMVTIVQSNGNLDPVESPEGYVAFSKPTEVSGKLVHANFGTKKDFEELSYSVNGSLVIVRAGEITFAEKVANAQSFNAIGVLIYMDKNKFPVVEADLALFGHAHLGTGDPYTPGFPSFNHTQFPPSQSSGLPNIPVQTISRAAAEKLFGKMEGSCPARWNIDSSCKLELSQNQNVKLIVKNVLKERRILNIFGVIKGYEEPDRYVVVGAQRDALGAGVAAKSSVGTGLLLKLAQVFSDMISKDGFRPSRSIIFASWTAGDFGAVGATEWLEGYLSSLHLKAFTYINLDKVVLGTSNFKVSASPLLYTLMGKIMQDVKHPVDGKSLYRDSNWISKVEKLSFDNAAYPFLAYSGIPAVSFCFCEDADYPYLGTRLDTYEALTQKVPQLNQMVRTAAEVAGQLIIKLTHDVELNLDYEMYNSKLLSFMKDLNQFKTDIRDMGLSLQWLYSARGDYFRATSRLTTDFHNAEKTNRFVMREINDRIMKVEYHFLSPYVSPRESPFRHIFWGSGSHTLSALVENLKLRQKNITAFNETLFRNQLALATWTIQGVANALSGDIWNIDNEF
T1 sequence (P02786 89-760 limits assumed): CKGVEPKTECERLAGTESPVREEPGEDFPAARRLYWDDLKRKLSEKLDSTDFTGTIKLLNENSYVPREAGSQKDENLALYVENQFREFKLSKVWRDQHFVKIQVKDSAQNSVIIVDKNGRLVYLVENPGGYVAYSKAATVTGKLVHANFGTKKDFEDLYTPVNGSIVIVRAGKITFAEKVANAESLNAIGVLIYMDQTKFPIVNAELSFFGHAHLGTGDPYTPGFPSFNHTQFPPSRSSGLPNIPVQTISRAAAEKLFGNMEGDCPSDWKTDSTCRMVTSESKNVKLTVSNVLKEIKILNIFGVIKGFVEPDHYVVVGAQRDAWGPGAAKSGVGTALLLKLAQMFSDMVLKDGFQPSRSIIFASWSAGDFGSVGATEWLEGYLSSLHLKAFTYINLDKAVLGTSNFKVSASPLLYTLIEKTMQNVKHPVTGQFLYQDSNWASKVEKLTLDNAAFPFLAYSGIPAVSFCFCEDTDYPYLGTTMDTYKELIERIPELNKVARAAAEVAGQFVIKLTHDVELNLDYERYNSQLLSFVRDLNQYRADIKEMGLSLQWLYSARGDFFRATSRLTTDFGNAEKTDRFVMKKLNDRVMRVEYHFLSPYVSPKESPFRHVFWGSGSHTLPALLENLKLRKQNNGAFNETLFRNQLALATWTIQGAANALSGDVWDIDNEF

Binder	Kd [1] [nM]	koff [1] [s⁻¹]	kon [1] [M⁻¹ s⁻¹]	Kd [2] [nM]	koff [2] [s⁻¹]	kon [2] [M⁻¹ s⁻¹]	Kd [3] [nM]	koff [3] [s⁻¹]	kon [3] [M⁻¹ s⁻¹]
Clone C variant 6 VNAR-hFc (Fc fusion, not shown: a dimerising Fc or GST) ARVDQTPQTITKETGESLTINCVLRDSNCALSSTYWYRKKSGSTNEENISKGGRYVETVNSGSKSFSLRINDLTVEDSGTYRCNVVQWPSIQSPFWCDVYGDGTAVTVN	19.3	0.000955	49500	–	–	–	–	–	–
Clone C variant 8 VNAR-hFc (Fc fusion, not shown: a dimerising Fc or GST) ARVDQTPQTITKETGESLTINCVLRDSNCALSSTYWYRKKSGSTNEENISKGGRYVETVNSGSKSFSLRINDLTVEDSGTYRCNVVQWPSYNNYFWCDVYGDGTAVTVN	4.5	0.000519	115000	6.81	0.000432	63500	–	–	–
Clone C variant 9 VNAR-hFc (Fc fusion, not shown: a dimerising Fc or GST) ARVDQTPQTITKETGESLTINCVLRDSNCALSSTYWYRKKSGSTNEENISKGGRYVETVNSGSKSFSLRINDLTVEDSGTYRCNVVQWPTLSSPFWCDVYGDGTAVTVN	26.5	0.000754	28500	2.43	9.32e-05	38300	–	–	–
Clone C variant 2 VNAR-hFc (Fc fusion, not shown: a dimerising Fc or GST) ARVDQTPQTITKETGESLTINCVLRDSNCALSSTYWYRKKSGSTNEENISKGGRYVETVNSGSKSFSLRINDLTVEDSGTYRCNVLQRPSYNNYFWCDVYGDGTAVTVN	49.4	0.000677	13700	9.65	0.000144	14900	–	–	–
Clone C variant 21 VNAR-hFc (Fc fusion, not shown: a dimerising Fc or GST) ARVDQTPQTITKETGESLTINCVLRDSNCALSSTYWYRKKSGSTNEENISKGGRYVETVNSGSKSFSLRINDLTVEDSGTYRCNVVQYPSIFNYFWCDVYGDGTAVTVN	4.58	0.000437	95500	–	–	–	–	–	–
Clone C variant 4 VNAR-hFc (Fc fusion, not shown: a dimerising Fc or GST) ARVDQTPQTITKETGESLTINCVLRDSNCALSSTYWYRKKSGSTNEENISKGGRYVETVNSGSKSFSLRINDLTVEDSGTYRCNVVQRPSYNNYFWCDVYGDGTAVTVN	9.21	0.000325	35200	2.34	8.76e-05	37400	–	–	–
Clone C variant 25 VNAR-hFc (Fc fusion, not shown: a dimerising Fc or GST) ARVDQTPQTITKETGESLTINCVLRDSNCALSSTYWYRKKSGSTNEENISKGGRYVETVNSGSKSFSLRINDLTVEDSGTYRCNVVQYPSYDNPFWCDVYGDGTAVTVN	17.1	0.000569	33300	–	–	–	–	–	–
Clone C variant 14 VNAR-hFc (Fc fusion, not shown: a dimerising Fc or GST) ARVDQTPQTITKETGESLTINCVLRDSNCALSSTYWYRKKSGSTNEENISKGGRYVETVNSGSKSFSLRINDLTVEDSGTYRCNVVQYPQQDRPFWCDVYGDGTAVTVN	6.34	0.000156	24500	6.69	0.000133	19900	–	–	–
Clone C variant 20 VNAR-hFc (Fc fusion, not shown: a dimerising Fc or GST) ARVDQTPQTITKETGESLTINCVLRDSNCALSSTYWYRKKSGSTNEENISKGGRYVETVNSGSKSFSLRINDLTVEDSGTYRCNVVQYPSHNNYFWCDVYGDGTAVTVN	5.61	0.000291	51900	2.06	0.000103	50100	–	–	–
Clone C variant 10 VNAR-hFc (Fc fusion, not shown: a dimerising Fc or GST) ARVDQTPQTITKETGESLTINCVLRDSNCALSSTYWYRKKSGSTNEENISKGGRYVETVNSGSKSFSLRINDLTVEDSGTYRCNVVQYPFLENYFWCDVYGDGTAVTVN	2.79	0.000389	140000	–	–	–	–	–	–
Clone C variant 22 VNAR-hFc (Fc fusion, not shown: a dimerising Fc or GST) ARVDQTPQTITKETGESLTINCVLRDSNCALSSTYWYRKKSGSTNEENISKGGRYVETVNSGSKSFSLRINDLTVEDSGTYRCNVVQYPSNNNYFWCDVYGDGTAVTVN	8.44	0.000627	74200	–	–	–	–	–	–
Clone H variant 5 VNAR-hFc (Fc fusion, not shown: a dimerising Fc or GST) ARVDQTPQTITKETGESLTINCVLRDSNCELSSTYWYRKKSGSTNEESISKGGRYVETVNSGSKSFSLRINDLVVEDSGTYRCNVQQFPNRWNGRYWCDVYGGGTAVTVNA	–	–	–	–	–	–	11	0.000369	33700
Clone H variant 6 VNAR-hFc (Fc fusion, not shown: a dimerising Fc or GST) ARVDQTPQTITKETGESLTINCVLRDSNCELSSTYWYRKKSGSTNEESISKGGRYVETVNSGSKSFSLRINDLVVEDSGTYRCNVQQFPSRNNGRYWCDVYGGGTAVTVNA	–	–	–	–	–	–	16.5	0.000417	25300

More lines, in order of falling Kd [1], values ahead:

Kd [1] [nM]	koff [1] [s⁻¹]	kon [1] [M⁻¹ s⁻¹]	Kd [2] [nM]	koff [2] [s⁻¹]	kon [2] [M⁻¹ s⁻¹]	Kd [3] [nM]	koff [3] [s⁻¹]	kon [3] [M⁻¹ s⁻¹]	Binder
2.79	0.000322	115000	1.45	0.000154	106000	–	–	–	Clone C variant 1 VNAR-hFc (Fc fusion, not shown: a dimerising Fc or GST) ARVDQTPQTITKETGESLTINCVLRDSNCALSSTYWYRKKSGSTNEENISKGGRYVETVNSGSKSFSLRINDLTVEDSGTYRCNVAQRPSYNNYFWCDVYGDGTAVTVN
2.19	0.000194	88800	–	–	–	–	–	–	Clone C variant 24 VNAR-hFc (Fc fusion, not shown: a dimerising Fc or GST) ARVDQTPQTITKETGESLTINCVLRDSNCALSSTYWYRKKSGSTNEENISKGGRYVETVNSGSKSFSLRINDLTVEDSGTYRCNVVQYPSWDNYFWCDVYGDGTAVTVN
1.36	0.000432	317000	–	–	–	–	–	–	Clone C variant 23 VNAR-hFc (Fc fusion, not shown: a dimerising Fc or GST) ARVDQTPQTITKETGESLTINCVLRDSNCALSSTYWYRKKSGSTNEENISKGGRYVETVNSGSKSFSLRINDLTVEDSGTYRCNVVQYPSQQNYFWCDVYGDGTAVTVN
0.733	0.000302	411000	0.486	0.000135	278000	–	–	–	Clone C variant 5 VNAR-hFc (Fc fusion, not shown: a dimerising Fc or GST) ARVDQTPQTITKETGESLTINCVLRDSNCALSSTYWYRKKSGSTNEENISKGGRYVETVNSGSKSFSLRINDLTVEDSGTYRCNVVQSPSYNNYFWCDVYGDGTAVTVN
0.699	0.000142	203000	0.715	0.000128	179000	–	–	–	Clone C variant 12 VNAR-hFc (Fc fusion, not shown: a dimerising Fc or GST) ARVDQTPQTITKETGESLTINCVLRDSNCALSSTYWYRKKSGSTNEENISKGGRYVETVNSGSKSFSLRINDLTVEDSGTYRCNVVQYPQQDNPFWCDVYGDGTAVTVN
0.636	7.02e-05	110000	0.286	3.39e-05	119000	–	–	–	Clone C variant 7 VNAR-hFc (Fc fusion, not shown: a dimerising Fc or GST) ARVDQTPQTITKETGESLTINCVLRDSNCALSSTYWYRKKSGSTNEENISKGGRYVETVNSGSKSFSLRINDLTVEDSGTYRCNVVQWPSLSSPFWCDVYGDGTAVTVN
0.472	9.01e-05	191000	0.291	5.17e-05	177000	–	–	–	Clone C variant 11 VNAR-hFc (Fc fusion, not shown: a dimerising Fc or GST) ARVDQTPQTITKETGESLTINCVLRDSNCALSSTYWYRKKSGSTNEENISKGGRYVETVNSGSKSFSLRINDLTVEDSGTYRCNVVQYPHYNNYFWCDVYGDGTAVTVN
0.454	0.000109	239000	1.33	0.000287	216000	–	–	–	Clone C variant 19 VNAR-hFc (Fc fusion, not shown: a dimerising Fc or GST) ARVDQTPQTITKETGESLTINCVLRDSNCALSSTYWYRKKSGSTNEENISKGGRYVETVNSGSKSFSLRINDLTVEDSGTYRCNVVQYPRTNNYFWCDVYGDGTAVTVN
0.439	8.13e-05	185000	0.207	3.72e-05	180000	–	–	–	Clone C variant 17 VNAR-hFc (Fc fusion, not shown: a dimerising Fc or GST) ARVDQTPQTITKETGESLTINCVLRDSNCALSSTYWYRKKSGSTNEENISKGGRYVETVNSGSKSFSLRINDLTVEDSGTYRCNVVQYPQYDNYFWCDVYGDGTAVTVN
0.311	0.000119	381000	0.72	0.000256	355000	–	–	–	Clone C variant 3 VNAR-hFc (Fc fusion, not shown: a dimerising Fc or GST) ARVDQTPQTITKETGESLTINCVLRDSNCALSSTYWYRKKSGSTNEENISKGGRYVETVNSGSKSFSLRINDLTVEDSGTYRCNVVQHPSYNNYFWCDVYGDGTAVTVN
0.248	5.78e-05	233000	0.0902	2.52e-05	279000	–	–	–	Clone C variant 15 VNAR-hFc (Fc fusion, not shown: a dimerising Fc or GST) ARVDQTPQTITKETGESLTINCVLRDSNCALSSTYWYRKKSGSTNEENISKGGRYVETVNSGSKSFSLRINDLTVEDSGTYRCNVVQYPQQPNYFWCDVYGDGTAVTVN
